For this experiment, the target named is T1, BoNT/B-HC (binding domain of botulinum neurotoxin type B, residues 857-1291) (UniProt P10844 857-1291).
T1 sequence: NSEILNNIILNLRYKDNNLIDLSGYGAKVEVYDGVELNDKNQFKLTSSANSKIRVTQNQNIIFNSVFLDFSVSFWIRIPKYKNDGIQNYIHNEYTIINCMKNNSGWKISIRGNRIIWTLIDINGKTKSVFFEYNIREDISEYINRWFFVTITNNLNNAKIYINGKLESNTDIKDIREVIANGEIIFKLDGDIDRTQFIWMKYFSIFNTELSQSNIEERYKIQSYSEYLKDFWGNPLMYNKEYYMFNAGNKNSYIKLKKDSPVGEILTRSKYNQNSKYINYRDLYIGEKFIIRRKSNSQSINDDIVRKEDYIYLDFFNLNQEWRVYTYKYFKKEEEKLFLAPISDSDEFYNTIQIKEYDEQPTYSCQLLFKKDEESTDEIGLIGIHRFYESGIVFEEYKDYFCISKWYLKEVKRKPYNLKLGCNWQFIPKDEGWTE
The experiment in a line: ITC.

Values joined by “and” are separate entries in the source; they are usually repeats but may differ in a detail not shown here. Equal values may be shown once.

B1: rat Syt-II peptide (residue 40-60) (peptide)
peptide: GESQEDMFAKLKDKFFNEINK
By Kd is commonly meant the constant that tells how readily two partners part at equilibrium. Low values mean higher affinity, high ones lower affinity. For B1, the dissociation constant Kd is 140 nM and 180 nM.

Values taken from PMC3752466 (Nature communications, 2013).
